The source of these data is paper PMC3649970, “A Unique Spumavirus Gag N-terminal Domain with Functional Properties of Orthoretroviral Matrix and Capsid” (PLoS Pathogens, 2013).

First the molecules themselves.
B3: PFV-Gag-NtD (amino terminal domain of Prototypic Foamy Virus Gag, residues 1-179) (domain or fragment)
chain: MASGSNVEEYELDVEALVVILRDRNIPRNPLHGEVIGLRLTEGWWGQIERFQMVRLILQDDDNEPLQRPRYEVIQRAVNPHTMFMISGPLAELQLAFQDLDLPEGPLRFGPLANGHYVQGDPYSSSYRPVTMAETAQMTRDELEDVLNTQSEIEIQMINLLELYEVETRALRRQLAERS
notes: source: E. coli Rosetta 2 (DE3), purified (Ni-NTA, Superdex 200 SEC); not shown: His-tag, N-terminal, kept

For data set [1], the target named is FFV Env leader peptide 1-30 (Feline foamy virus) (UniProt O56861). Nature of the data set: given as Ka. To be noted: cited from earlier work.
In data set [2] the target is FFV-Gag-NtD (feline foamy virus Gag residues 1-154), His tag removed (feline foamy virus (FFV)). The data set can be described thus: AUC.
The target of data set [3] is FFV-Gag-NtD (feline foamy virus Gag residues 1-154), His-tagged (feline foamy virus (FFV)). The data set can be described thus: SEC-MALS.
For data set [4] the target is unchanged. The data set can be described thus: AUC.
Data set [5] has as its target B3. The data set can be described thus: AUC; sedimentation velocity of 75 µM equimolar mixtures of Gag-NtD and Env peptide, absorbance at 280 nm; bound fraction from the integrated absorbance of the 3S species in C(S). Particulars: both partners purified.
Data set [6] concerns the target T1, PFV-Gag-NtD (amino terminal domain of Prototypic Foamy Virus Gag, residues 1-179) (Prototypic foamy virus (PFV), UniProt P14349 1-179).
T1 chain: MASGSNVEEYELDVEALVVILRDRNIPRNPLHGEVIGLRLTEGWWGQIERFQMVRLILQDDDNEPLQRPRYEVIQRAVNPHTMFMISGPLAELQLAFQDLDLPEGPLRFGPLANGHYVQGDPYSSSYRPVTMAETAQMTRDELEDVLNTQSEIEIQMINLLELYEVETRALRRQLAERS
The data set can be described thus: AUC.

A short description of data set [7]: Sedimentation velocity AUC of Gag-NtDs. Particulars: for ƒ/ƒ0 (D20,w): frictional ratio calculated from D20,w; for ƒ/ƒ0 (D20,w) / ƒ/ƒ0 (S20,w): discrete component analysis; for ƒ/ƒ0 (S20,w): frictional ratio calculated from S20,w; for sedimentation coefficient S20,w: no concentration dependency over the range measured; for D20,w (×10^7) / Mw C(S) / S20,w (×10^13): sedimentation velocity; for D20,w (×10^7) / S20,w (×10^13): 293 K, pH 7.5, Crange 20–90 µM (PFV), 30–130 µM (FFV); for Mw C(S): C(S) analysis; for S20,w (×10^13): discrete component analysis, 50,000 rpm; for Mw (S/D): weight averaged molecular weight from discrete component analysis; for ƒ/ƒ0 C(S): weight-averaged frictional ratio from best fit C(S) distribution function. Format: physicochemical. As to the method: (§1) Sedimentation velocity experiments were performed in a Beckman Optima Xl-I analytical ultracentrifuge using conventional aluminium double sector centrepieces and sapphire windows. Solvent density and the protein partial specific volumes were determined as described. Prior to centrifugation, samples were prepared by exhaustive dialysis against the buffer blank solution, 20 mM Tris-HCl, 150 mM NaCl and 0.5 mM TCEP, pH 7.5. Centrifugation was performed at 50,000 rpm and 293 K in an An50-Ti rotor. Interference data were acquired at time intervals of 180 sec at varying sample concentration (0.5–2.5 mg/ml). Data recorded from moving boundaries was analysed using both a discrete species model and in terms of the size distribution functions C(S) using the program SEDFIT [90], [91], [92]. For analysis of Env peptide binding, sedimentation velocity experiments were conducted in 3 mm pathlength centrepieces using equimolar mixtures (75 µM) of PFV-Gag-NtD and Env peptides. In these experiments, radial absorbance scans at 280 nm were also recorded along with the interference data.

A short description of data set [8]: Sedimentation equilibrium AUC of Gag-NtDs. It is filed as physicochemical. Particulars: for weight averaged molecular weight, sedimentation equilibrium: multispeed, global fit with single ideal molecular species model; for Mw (sedimentation equilibrium): weight averaged, Global SE analysis, pH 7.5. As for the experimental part:
Sedimentation equilibrium experiments were performed in a Beckman Optima XL-I analytical ultracentrifuge using charcoal filled Epon six-channel centrepieces in an An-50 Ti rotor. Prior to centrifugation, samples were dialyzed exhaustively against the buffer blank, 20 mM Tris-HCl, pH 7.5, 150 mM NaCl, 0.5 mM TCEP. After centrifugation for 18 h, interference data was collected 2-h intervals until no further change in the profiles was observed. The rotor speed was then increased and the procedure repeated. Data were collected on samples of different concentrations of FFV- and PFV-Gag-NtD (14–100 µM) at three speeds and the program SEDPHAT [93], [94] was used to determine weight-averaged molecular masses by nonlinear fitting of individual multi-speed equilibrium profiles (A versus r) to a single-species ideal solution model.

Data set [9] is described as follows: SEC-MALLS solution molecular weight of Gag-NtDs. It is filed as physicochemical. To be noted: Superdex 200 10/300 GL, 20 mM Tris-HCl, 150 mM NaCl, 0.5 mM TCEP, pH 8.0; 12-1.5 mg/ml, concentration invariant. As for the experimental part: Size exclusion chromatography coupled multi-angle laser light scattering (SEC-MALLS) was used to determine the molar mass of FFV- and PFV-Gag-Ntd. Samples ranging from 1.5 to 12.0 mgml^−1 were applied in a volume of 100 µl to a Superdex 200 10/300 GL column equilibrated in 20 mM Tris-HCl, 150 mM NaCl and 0.5 mM TCEP, pH 8.0, at a flow rate of 0.5 ml/min. The scattered light intensity and the protein concentration of the column eluate were recorded using a DAWN-HELEOS laser photometer and OPTILAB-rEX differential refractometer respectively. The weight-averaged molecular mass of material contained in chromatographic peaks was determined from the combined data from both detectors using the ASTRA software version 6.0.3 (Wyatt Technology Corp., Santa Barbara, CA, USA).

The data set “SEC-MALS” deals with the molecule itself. Nature of the data set: SEC-MALS.
In data set [10] the test system is PFV Env leader peptide (Env-LP), Env1–20. The data set can be described thus: SV-AUC binding of PFV-Gag-NtD mutants to Env1–20 (Env-LP). Set-up: species or system Prototypic Foamy Virus (PFV). Particulars: for Gag-Env binding (in words): 75 µM equimolar Gag-NtD mutant and Env1–20. As to the method:
as §1
Data were analysed using a general binding expression, Eq. 1. This expression relates the association constant Ka to the fraction of bound peptide θ (θ = [PL]/[Lt]) in terms of the total concentrations of peptide [Lt] and protein [Pt] and is a modification of the formulae employed in [95], [96]. [drawing 1] (1) In sedimentation velocity experiments θ was determined from the integrated absorbance of the 3S species in the C(S) function that best fits the sedimentation data. As equimolar ratios of peptide and protein were employed ([Lt] = [Pt]) Eq. 1 can be simplified and equilibrium association constants determined from Eq. 2. [drawing 2] (2)

FFV Gag (from UniProt O56860): in data set [1], the Kd is 15.4 µM.
Take “FFV-Gag-NtD (feline foamy virus Gag residues 1-154), His tag removed (domain or fragment)”: the stoichiometry N in [2] was 2.
For “FFV-Gag-NtD (feline foamy virus Gag residues 1-154), His-tagged (domain or fragment)”, the stoichiometry N in data set [3] and in data set [4] was 2 in each case.

B1: PFV Env leader peptide residues 5-18 (peptide)
peptide: MTLQQWIIWKKMNK
notes: source: synthetic peptide, bought HPLC purified: Pepceuticals Ltd
Regarding B1, the Ka in data set [5] is 20000 M⁻¹. In addition, binding in data set [6] was characterised by a dissociation constant (Kd) of 49.4 µM.

B2: FFV-Gag-NtD: FFV Gag residues 1–154, N-terminal His-tag fusion expressed in E. coli (protein, UniProt O56860 1-154, looked up, fragment)
chain: MARELNPLQLQQLYINNGLQPNPGHGDIIAVRFTGGPWGPGDRWARVTIRLQDNTGQPLQVPGYDLEPGIINLREDILIAGPYNLIRTAFLDLEPARGPERHGPFGDGRLQPGDGLSEGFQPITDEEIQAEVGTIGAARNEIRLLREALQRLQA
modifications: N-terminal His-tag
notes: FFV Gag residues 1–154, N-terminal His-tag fusion expressed in E. coli
As to B2, in data set [7], the “ƒ/ƒ0 (D20,w)” value is recorded as 1.42, the “ƒ/ƒ0 (S20,w)” value is reported as 1.49, the “sedimentation coefficient S20,w” value is 2.72 and the “D20,w (×10^7)” value is on record as 6.81±0.3 cm^2 sec^−1. Further, in data set [7], the “Mw C(S)” value is 37.4±1 kD, the “S20,w (×10^13)” value came out at 2.72±0.01 sec, the “Mw (S/D)” value turned out to be 36.1±1.5 kD and the “ƒ/ƒ0 C(S)” value was 1.47. For the same molecule, the “weight averaged molecular weight, sedimentation equilibrium” value in data set [8] came to 33.7 kDa. Further, the “Mw (sedimentation equilibrium)” value in [8] (Crange 14–50 µM, FFV-154 sample with the His tag removed) is reported as “^h33.7±1 kD”. Further, the “solution molecular weight (SEC-MALLS)” value in [9] worked out at 34.0 kDa.
Consider B3, for which the “stoichiometry N” value in the data set “SEC-MALS” is 2.

B4: Val14/Leu21 to serine (protein)
chain: MASGSNVEEYELDSEALVVISRDRNIPRNPLHGEVIGLRLTEGWWGQIERFQMVRLILQDDDNEPLQRPRYEVIQRAVNPHTMFMISGPLAELQLAFQDLDLPEGPLRFGPLANGHYVQGDPYSSSYRPVTMAETAQMTRDELEDVLNTQSEIEIQMINLLELYEVETRALRRQLAERS
modifications: left off: His-tag, N-terminal, state not stated
For B4, the “reduction of Gag-Env affinity (fold)” value in data set [10] (75 µM equimolar Gag-NtD mutant and Env1–20, relative to wt PFV-Gag-NtD) was “twenty-fold”.

B5: PFV-Gag-NtD: PFV-Gag residues 1–179, N-terminal His-tag fusion expressed in E. coli (protein, UniProt P14349 1-179, looked up, fragment)
chain: MASGSNVEEYELDVEALVVILRDRNIPRNPLHGEVIGLRLTEGWWGQIERFQMVRLILQDDDNEPLQRPRYEVIQRAVNPHTMFMISGPLAELQLAFQDLDLPEGPLRFGPLANGHYVQGDPYSSSYRPVTMAETAQMTRDELEDVLNTQSEIEIQMINLLELYEVETRALRRQLAERS
modifications: N-terminal His-tag
notes: PFV-Gag residues 1–179, N-terminal His-tag fusion expressed in E. coli
For the molecule B5, in data set [7], the “ƒ/ƒ0 (D20,w)” value is 1.52, the “ƒ/ƒ0 (S20,w)” value was 1.48, the “sedimentation coefficient S20,w” value came to 3.08 and the “D20,w (×10^7)” value turned out to be 5.96±0.04 cm^2 sec^−1. In [7], the “Mw C(S)” value is listed as 48.2±1 kD, the “S20,w (×10^13)” value came out at 3.08±0.02 sec, the “Mw (S/D)” value worked out at 46.7±0.2 kD and the “ƒ/ƒ0 C(S)” value is 1.54. In [8], the “weight averaged molecular weight, sedimentation equilibrium” value came out at 44 kDa. In data set [8] (Crange 30–100 µM, His-tagged), the “Mw (sedimentation equilibrium)” value is recorded as 44±2 kD. Also, in data set [9], the “solution molecular weight (SEC-MALLS)” value came to 40.0 kDa.

B6: Asn29 to glutamine (protein, UniProt P14349 1-179, looked up, variant N29Q)
chain: MASGSNVEEYELDVEALVVILRDRNIPRQPLHGEVIGLRLTEGWWGQIERFQMVRLILQDDDNEPLQRPRYEVIQRAVNPHTMFMISGPLAELQLAFQDLDLPEGPLRFGPLANGHYVQGDPYSSSYRPVTMAETAQMTRDELEDVLNTQSEIEIQMINLLELYEVETRALRRQLAERS
modifications: N-terminal His-tag
As for B6, the “Gag-Env binding (in words)” value in data set [10] is listed as “little effect on Env binding”.

B7: triple substitution where Val14, Val18 and Leu21 were all substituted by serine (protein, UniProt P14349 1-179, looked up, variant V14S V18S L21S)
chain: MASGSNVEEYELDSEALSVISRDRNIPRNPLHGEVIGLRLTEGWWGQIERFQMVRLILQDDDNEPLQRPRYEVIQRAVNPHTMFMISGPLAELQLAFQDLDLPEGPLRFGPLANGHYVQGDPYSSSYRPVTMAETAQMTRDELEDVLNTQSEIEIQMINLLELYEVETRALRRQLAERS
modifications: N-terminal His-tag
Regarding B7, the “Gag-Env binding (in words)” value in data set [10] is “reduced binding to an undetectable level”.
